Positions count from the first letter of the chain named. Names and notes keep the numbering of the source.
Tests used:
[1] = molecular target: T1, ErbB3 extracellular domain, His-tagged (human, UniProt P21860 20-643); test: SPR (BIAcore T100, 25 C), 2C2 Fab immobilised on CM5 chip, ErbB3 ECD in flow
T1 construct: Expressed in baculovirus-infected Sf9 cells and de-glycosylated for crystallography; also called ErbB3-ECD; ErbB3 ECD; not shown: C-terminal hexa-histidine tag, told in words only

[2] = molecular target: T2, ErbB3 domain III, His-tagged (human, UniProt P21860 329-521); test: SPR (BIAcore T100, 25 C), 2C2 Fab immobilised on CM5 chip, ErbB3 domain III in flow
T2 construct: also called purified domain III; D3; not shown: His tag

[3] = molecular target: T3, cell-surface expressed ErbB3 (Homo sapiens (Human), UniProt P21860 20-1342); test: flow cytometry, Alexa-647-labelled 2C2 titrated on BaF3 cells co-expressing ErbB2 and ErbB3, on ice; single-site binding isotherm
T3 construct: also called HER3

[4] = molecular target: T4, ErbB3 domain I, His-tagged (human, UniProt P21860 20-201); test: ELISA, His-tagged ErbB3 domain I coated on the plate, 2C2 titrated, HRP anti-human secondary antibody, chemiluminescence
T4 construct: also called D1; not shown: His tag

[5] = molecular target: T5, ErbB3 domain II, His-tagged (human, UniProt P21860 202-328); test: ELISA, His-tagged ErbB3 domain II coated on the plate, 2C2 titrated, HRP anti-human secondary antibody, chemiluminescence
T5 construct: also called D2; not shown: His tag

[6] = molecular target: T6, ErbB3 domain IV, His-tagged (human, UniProt P21860 522-643); test: ELISA, His-tagged ErbB3 domain IV coated on the plate, 2C2 titrated, HRP anti-human secondary antibody, chemiluminescence
T6 construct: also called D4; not shown: His tag

[7] = molecular target: T2, ErbB3 domain III, His-tagged; test: ELISA, His-tagged ErbB3 domain III coated on the plate, 2C2 titrated, HRP anti-human secondary antibody, chemiluminescence
[8] = molecular target: T1, ErbB3 extracellular domain, His-tagged; test: SPR (BIAcore T100), Fab immobilised on a CM5 chip, ErbB3-ECD passed over in rising concentrations, long dissociation, 1:1 binding model

B1: 2C2 Fab (Fab, V domains shown)
VH: EVQLLESGGGLVQPGGSLRLSCAASGFTFSYYYMQWVRQAPGKGLEWVSYIGSSGGVTNYADSVKGRFTISRDNSKNTLYLQMNSLRAEDTAVYYCARVGLGDAFDIWGQGTMVTVSS
VL: QSVLTQPPSASGTPGQRVTISCSGSLSNIGLNYVSWYQQLPGTAPKLLISRNNQRPSGVPDRFSGSKSGTSASLAISGLRSEDEADYYCAAWDDSPPGEAFGGGTKLTVL
notes: Fab expressed in E. coli (pET26b, pelB signal peptide); also called Fab fragment of 2C2; Fab 2C2
**Q.** With B1 as the binder, how does the Kd [1] read?
**A.** The Kd was 0.166 nM.

**Q.** And the Kd [2]?
**A.** The Kd was 0.377 nM.

B2: 2C2 antibody (whole antibody used in the examples was 2C2-YTE) (antibody, V domains shown)
VH: B1 VH
VL: B1 VL
notes: Whole anti-ErbB3 antibody of WO 2013/078191
**Q.** What does the source list for B2?
**A.** Kd [3]: 0.08 nM; binding result [4]: no binding (tested: about 60 nM (log nM about 1.8)); binding result [5]: no binding (tested: about 60 nM (log nM about 1.8)); binding result [6]: no binding (tested: about 60 nM (log nM about 1.8)); EC50 (read off the curve) [7]: ~0.5 nM

B3: S25H Fab (Fab, V domains shown)
VH: B1 VH
VL: B1 VL with S25H
notes: 2C2 Fab variant with serine to histidine at residue 25 of the light chain (CDR1), made by QuikChange mutagenesis; also called S25H Fab antibody
**Q.** Which koff [8] does the source give for B3 here?
**A.** The koff was 5.5e-05 s⁻¹.

B4: S23R Fab (Fab, V domains shown)
VH: B1 VH
VL: B1 VL with S23R
notes: 2C2 Fab variant with serine to arginine at residue 23 of the light chain (CDR1); also called S23R Fab antibody
**Q.** Which koff [8] does the source give for B4 here?
**A.** The koff was 8.3e-05 s⁻¹.
